From publication PMC4918383

How the values were obtained:
actin filaments [1] = molecular target: actin filaments (UniProt P68135)
actin filaments [2] = molecular target: actin filaments (UniProt P68135); remark: listed apart in the source
actin filaments [3] = molecular target: actin filaments (UniProt P68135); remark: listed apart in the source

human β-cardiac myosin motor domain::GFP chimera, sequence (P12883 1-787, change not shown): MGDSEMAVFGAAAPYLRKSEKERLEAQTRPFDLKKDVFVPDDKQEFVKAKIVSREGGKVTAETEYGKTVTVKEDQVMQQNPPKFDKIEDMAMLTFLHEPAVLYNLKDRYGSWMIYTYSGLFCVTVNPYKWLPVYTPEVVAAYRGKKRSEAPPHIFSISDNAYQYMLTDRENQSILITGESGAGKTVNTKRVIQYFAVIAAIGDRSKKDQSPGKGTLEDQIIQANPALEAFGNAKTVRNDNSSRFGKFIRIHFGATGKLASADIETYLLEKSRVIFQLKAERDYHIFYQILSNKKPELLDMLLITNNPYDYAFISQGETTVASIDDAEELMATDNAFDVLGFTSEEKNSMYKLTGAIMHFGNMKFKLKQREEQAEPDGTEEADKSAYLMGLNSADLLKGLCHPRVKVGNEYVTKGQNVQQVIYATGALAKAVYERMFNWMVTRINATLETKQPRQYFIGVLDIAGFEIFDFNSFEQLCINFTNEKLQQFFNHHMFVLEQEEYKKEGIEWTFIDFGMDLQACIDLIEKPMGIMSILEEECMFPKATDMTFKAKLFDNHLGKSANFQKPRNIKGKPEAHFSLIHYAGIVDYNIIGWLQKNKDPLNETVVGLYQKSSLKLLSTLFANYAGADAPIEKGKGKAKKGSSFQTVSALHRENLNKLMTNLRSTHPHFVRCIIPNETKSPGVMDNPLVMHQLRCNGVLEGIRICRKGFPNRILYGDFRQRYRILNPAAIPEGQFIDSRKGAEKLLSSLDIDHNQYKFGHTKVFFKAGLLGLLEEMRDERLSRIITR
human β-cardiac heavy meromyosin, sequence (P12883 1-1138): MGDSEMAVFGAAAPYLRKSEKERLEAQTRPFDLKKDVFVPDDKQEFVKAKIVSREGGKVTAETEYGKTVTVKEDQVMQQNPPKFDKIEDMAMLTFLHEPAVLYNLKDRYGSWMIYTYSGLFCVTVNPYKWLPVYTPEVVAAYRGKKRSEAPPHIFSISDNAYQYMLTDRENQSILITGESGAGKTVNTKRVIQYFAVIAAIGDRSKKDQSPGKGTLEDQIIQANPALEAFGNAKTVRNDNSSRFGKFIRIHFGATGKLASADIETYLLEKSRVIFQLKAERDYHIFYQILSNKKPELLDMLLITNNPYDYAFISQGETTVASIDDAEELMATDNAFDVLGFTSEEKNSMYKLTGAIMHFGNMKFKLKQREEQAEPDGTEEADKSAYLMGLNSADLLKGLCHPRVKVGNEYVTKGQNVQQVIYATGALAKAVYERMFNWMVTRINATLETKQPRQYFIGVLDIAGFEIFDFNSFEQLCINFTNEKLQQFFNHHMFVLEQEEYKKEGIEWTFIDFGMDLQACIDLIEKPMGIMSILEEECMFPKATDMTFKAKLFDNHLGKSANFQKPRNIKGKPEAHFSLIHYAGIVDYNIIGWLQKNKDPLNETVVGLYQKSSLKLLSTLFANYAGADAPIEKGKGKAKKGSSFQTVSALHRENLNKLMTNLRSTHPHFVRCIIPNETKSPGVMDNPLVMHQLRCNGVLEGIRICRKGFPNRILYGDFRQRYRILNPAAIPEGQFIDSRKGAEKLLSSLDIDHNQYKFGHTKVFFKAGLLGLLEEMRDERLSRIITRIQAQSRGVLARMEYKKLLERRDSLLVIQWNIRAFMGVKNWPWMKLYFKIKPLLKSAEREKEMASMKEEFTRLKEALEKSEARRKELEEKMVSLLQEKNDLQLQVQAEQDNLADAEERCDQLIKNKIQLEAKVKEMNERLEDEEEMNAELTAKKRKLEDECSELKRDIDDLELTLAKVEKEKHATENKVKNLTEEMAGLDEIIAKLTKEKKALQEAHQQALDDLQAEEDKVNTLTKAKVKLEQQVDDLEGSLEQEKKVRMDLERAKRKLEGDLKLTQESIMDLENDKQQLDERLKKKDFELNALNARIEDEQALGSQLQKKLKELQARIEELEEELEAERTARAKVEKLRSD

Substance	K ATPase for actin activation of the steady-state ATPase of the cMD (0.06 μM cMD, 0–100 μM actin), with 100 μM OM (actin filaments [1]) [µM]	K ATPase for actin activation of the steady-state ATPase of the cMD (0.06 μM cMD, 0–100 μM actin), without OM (actin filaments [1]) [µM]	sliding actin filament velocity in the in vitro motility assay (cMD held by anti-GFP, 32 °C), without OM and with OM titrated from 0.42 to 12.5 μM; slowed 15–20-fold by OM (actin filaments [2]) [μm s^−1]	actin filament velocity in the in vitro motility assay (cHMM bound directly to nitrocellulose, 32 °C), without OM and with OM titrated from 0.42 to 12.5 μM; slowed 15–20-fold by OM (actin filaments [3]) [μm s^−1]
human β-cardiac myosin motor domain::GFP chimera (from UniProt P12883 1-787) (domain or fragment)	5.4	22.5	0.8	
human β-cardiac heavy meromyosin (from UniProt P12883 1-1138) (domain or fragment)				0.8
